Measurements from publication PMC4982705 (Biochemical pharmacology, 2016).

Molecular target: the molecule itself
Experiment: SEC

B1: wildtype human SULT1B1 (enzyme)
chain: not shown
stoichiometry N: 2
